Laboratory results as given in article PMC5339705, “OGG1-DNA interactions facilitate NF-κB binding to DNA targets”.

Tests used:
p50 (NF-kB1) [1] = biological target: T1, p50 (NF-kB1) (UniProt P19838 1-433); assay: EMSA; p50 alone; mildly enhanced by 1 ng OGG1; 10 mM Tris-HCl pH 8.0, 5 mM NaCl, 1 mM EDTA, 1 mM DTT, 0.1 mg/ml BSA, 0.1 µg/µl poly(dI-dC) (stated for NE reactions), 10 fmol probe, 10 µl, RT 5-10 min; 6% gel 0.5x TBE 4 °C; details: protein: commercial; chain copies: 2; label: 5' biotin on strand 2; blunt
OGG1 = OGG1 (UniProt O15527 1-345); assay: EMSA; OGG1 alone; more complex when NF-kB present; 10 mM Tris-HCl pH 8.0, 5 mM NaCl, 1 mM EDTA, 1 mM DTT, 0.1 mg/ml BSA, 0.1 µg/µl poly(dI-dC) (stated for NE reactions), 10 fmol probe, 10 µl, RT 5-10 min; 6% gel 0.5x TBE 4 °C; details: protein: commercial; label: 5' biotin on strand 2; blunt
p65 (RelA) = p65 (RelA) (UniProt Q04206 1-551); assay: EMSA; 15 ng p65 (also 7.5 ng series) with OGG1; 10 mM Tris-HCl pH 8.0, 5 mM NaCl, 1 mM EDTA, 1 mM DTT, 0.1 mg/ml BSA, 0.1 µg/µl poly(dI-dC) (stated for NE reactions), 10 fmol probe, 10 µl, RT 5-10 min; 6% gel 0.5x TBE 4 °C; details: protein: commercial; chain copies: 2; label: 5' biotin on strand 2; blunt
p50 (NF-kB1) [2] = biological target: T1, p50 (NF-kB1); assay: EMSA; homodimer formed in p65/p50 mix, no OGG1; from 1 min; 10 mM Tris-HCl pH 8.0, 5 mM NaCl, 1 mM EDTA, 1 mM DTT, 0.1 mg/ml BSA, 0.1 µg/µl poly(dI-dC) (stated for NE reactions), 10 fmol probe, 10 µl, RT 5-10 min; 6% gel 0.5x TBE 4 °C; details: protein: commercial; chain copies: 2; label: 5' biotin on strand 2; blunt

T1 sequence (P19838 1-433): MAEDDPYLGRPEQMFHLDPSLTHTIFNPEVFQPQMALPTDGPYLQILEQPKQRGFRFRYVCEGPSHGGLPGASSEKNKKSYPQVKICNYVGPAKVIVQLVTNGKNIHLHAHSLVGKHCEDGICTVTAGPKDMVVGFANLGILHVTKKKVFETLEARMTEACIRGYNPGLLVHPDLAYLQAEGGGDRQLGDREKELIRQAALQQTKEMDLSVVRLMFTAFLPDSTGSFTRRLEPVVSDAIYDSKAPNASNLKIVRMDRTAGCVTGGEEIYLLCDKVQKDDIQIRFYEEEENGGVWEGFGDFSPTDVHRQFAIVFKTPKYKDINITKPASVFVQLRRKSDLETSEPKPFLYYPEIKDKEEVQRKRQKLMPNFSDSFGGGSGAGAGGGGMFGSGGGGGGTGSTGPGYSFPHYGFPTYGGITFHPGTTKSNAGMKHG
Sequence of p65 (RelA) (Q04206 whole entry): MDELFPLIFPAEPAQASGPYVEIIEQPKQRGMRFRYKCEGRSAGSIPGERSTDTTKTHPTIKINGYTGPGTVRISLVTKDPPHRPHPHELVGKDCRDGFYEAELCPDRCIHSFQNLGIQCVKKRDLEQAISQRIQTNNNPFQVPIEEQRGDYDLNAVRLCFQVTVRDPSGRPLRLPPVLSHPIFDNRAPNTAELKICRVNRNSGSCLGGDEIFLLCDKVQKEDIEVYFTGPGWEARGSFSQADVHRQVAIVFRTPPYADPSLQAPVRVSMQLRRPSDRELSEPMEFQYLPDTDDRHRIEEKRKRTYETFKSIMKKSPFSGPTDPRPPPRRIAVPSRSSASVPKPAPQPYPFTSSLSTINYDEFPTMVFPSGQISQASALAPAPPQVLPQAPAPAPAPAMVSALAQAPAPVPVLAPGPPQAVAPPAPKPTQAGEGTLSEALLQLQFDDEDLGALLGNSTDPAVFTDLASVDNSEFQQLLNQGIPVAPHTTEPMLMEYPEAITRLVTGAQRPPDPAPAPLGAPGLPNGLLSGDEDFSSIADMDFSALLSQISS
Sequence of OGG1 (O15527 whole entry): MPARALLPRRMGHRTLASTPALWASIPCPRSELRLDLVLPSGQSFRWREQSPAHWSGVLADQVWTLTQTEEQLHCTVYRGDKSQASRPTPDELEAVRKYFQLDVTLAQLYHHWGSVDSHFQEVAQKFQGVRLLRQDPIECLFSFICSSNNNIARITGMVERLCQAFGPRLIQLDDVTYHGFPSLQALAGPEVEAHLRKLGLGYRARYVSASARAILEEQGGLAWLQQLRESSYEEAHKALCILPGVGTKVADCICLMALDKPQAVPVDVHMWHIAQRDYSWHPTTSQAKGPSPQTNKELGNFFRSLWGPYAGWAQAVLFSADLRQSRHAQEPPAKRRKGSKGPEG

B1: κB2-G6 (dsDNA)
DNA 1: TGAGGGGACCCTGAGCTCAGGGAATTTCCCTGG
DNA 2: CCAGGGAAATTCCCTGAGCTCAGGGTCCCCTCA
modifications: 8-oxoG at strand 2 position 23 (opposite C11 of strand 1)
- binding result (p50 (NF-kB1) [1]): binds
- binding result (OGG1): binds
- binding signal (p65 (RelA)): > 10 fold vs p65 alone

B2: κB2-Wt (dsDNA)
DNA 1: TGAGGGGACCCTGAGCTCAGGGAATTTCCCTGG
DNA 2: CCAGGGAAATTCCCTGAGCTCAGGGTCCCCTCA
- binding result (p50 (NF-kB1) [2]): binds
